Results published in US20090162366A1 (KIRIN PHARMA, published 2009).

B1: C40G1 (antibody, V domains shown)
VH: QLQLQESGPGLVKPSETLSLTCTVSGGSISSSFYYCGWIRQPPGKGLEWIGSIYYRGSTYYNPSLKSRVTISVDTSKNQFSLKLSSVTAADTAVYYCARRVTMVRGVKGDYFDYWGQGTLVTVSS
VL: DIQMTQSPSSLSASVGDRVTITCRASQGISSWLAWYQQKPEKVPKSLIYAASSLQSGVPSRFSGSGSGTDFTLTISSLQPEDFATYYCQQYNYYPLTFGGGTKVEIKR
B2: L66 (antibody, V domains shown)
VH: EVQLVESGGGVVRPGGSLRLSCAASGFTFDDYGMSWVRQAPGKGLEWVSGINWNGGSTGYADSVKGRFTISRDNAKNSLYLQMNSLRAEDTALYYCARDRVTMVRGVIMDYYGMDVWGQGTTVTVSS
VL: QTVVTQEPSLTVSPRGTVTLTCSSSTGAVTSGYYPGWFQLKPGQAPMSLIYSARKKHSWTPARFSGSLLGGKAALTLSGVQPEDEAEYYCLLYYGGAYVFGTGTKVTVLG
B3: N547 (antibody, V domains shown)
VH: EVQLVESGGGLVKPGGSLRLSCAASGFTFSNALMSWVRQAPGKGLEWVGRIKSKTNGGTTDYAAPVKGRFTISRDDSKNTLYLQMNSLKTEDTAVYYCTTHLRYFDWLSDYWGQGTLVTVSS
VL: QSVLTQPPSMSAAPGQKVTISCSGSSSNIGNNYISWYQQLPGTAPKVLIYDNNKRPSGIPDRFSGSKSGTSATLGITGLQTGDEADYYCGSWDSSLSAGVFGTGTKVTVLG
B4: C40G4 (antibody, V domains shown)
VH: B1 VH
VL: B1 VL

target: T1, M2 expressed on MDCK cells infected with influenza A/PR/8/34 (influenza A virus A/PR/8/34, UniProt P06821 1-97); experiment: cell ELISA, A/PR/8/34-infected MDCK, Ab 1 µg/ml, no peptide
T1 construct: whole, on cells
T1 sequence (P06821 whole entry): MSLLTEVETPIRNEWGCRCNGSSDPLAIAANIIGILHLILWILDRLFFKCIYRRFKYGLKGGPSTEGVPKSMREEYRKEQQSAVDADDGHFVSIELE

Binder	OD450 [OD450]
B1	0.799
B2	0.931
B3	0.504

target: T1, M2 expressed on MDCK cells infected …; experiment: cell ELISA, A/PR/8/34-infected MDCK

Binder	fold greater reactivity than F1 and F2 [fold]
B1	> 100
B2	> 100
B3	> 100

target: T1, M2 expressed on MDCK cells infected …; experiment: cell ELISA, A/PR/8/34-infected MDCK, Ab 1 µg/ml, competitor M2 peptide 20 µg/ml

Binder	OD450 with competitor [OD450]
B1	0.195
B2	0.113
B3	0.062

target: T1, M2 expressed on MDCK cells infected …; experiment: cell ELISA on infected MDCK cells

Binder	EC50 [µg/mL]
B1	0.183
B4	0.301
B2	0.117
B3	0.104
